Measured values published in a protein production outcome set (Wang et al. 2014).

Assay: label from the status in PepcDB records
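Further: failed if final PepcDB status was selected cloned or expressed and not failed if soluble or beyond.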

Sequence | protein production
MVRRKKLLSGVLLLSGMLCTGRVMAQQWLYKQAAVPIEYRVKDLLGRMTIEEKVGQLCCPLGWEMYTKTGKNEVTVSELYKKKMAEAPVGSFWAVLRADPWTQKTLETGLSPELSAKALNALQKYAVEETRLGIPVLFAEECPHGHMAIGTTVFPTALSAASTWNEGLMLKMGEAIALEARLQGANIGYGPVLDVAREPRWSRMEETFGEDPVLTTIMGVAMMKGMQGKVQNDGKHLYATLKHFAAYGVPESGHNGSRANCGMRQLLSEYLPPFRKAVKEGAGTLMTSYNAIDGVPCTANKELLTDVLRNQWGFKGFVYSDLISIEGIVGMRAAKDNKEAAVKALKAGLDMDLGGNAFGKNLKKAYEEGLITMADLDRAVGNVLRLKFQMGLFENPYVSPELAKKLVHSKEHKELARQVAREGVVLLKNEGVLPLSKHIGHLAVIGPNADEMYNQLGDYTAPQVREEVATVLDGIRAAVSESTRVTYVKGCAVRDTTATDIPAAVAAAQKADAVVLVVGGSSARDFKTKYISTGAATVSEDAKTLPDMDCGEGFDRSSLRLLGDQEKLISAVASTGKPLVVVYIQGRTMNMNLAAEKAQALLTAWYPGEQGGMGIADILFGDYSPAGRLPVSVPRSEGQLPVFYSQGTQRDYVESKGTPLYAFGYGLSYTRFTYSGLELQKGTEMETLQTVACTVTNTGNRDGEEVVQLYIGDKVASVSQPPLLLKAFQRIFLKKGESRQVIFHLKKDDLGIYDSEMNYVVEPGEFKVMVGAASNDIRLEGEFVL | failed
MGPIGAEADENQTVEEMKVEQYGPQTTPRGELVPDPEPELIDSTKLIEVQVVLILAYCSIILLGVIGNSLVIHVVIKFKSMRTVTNFFIANLAVADLLVNTLCLPFTLTYTLMGEWKMGPVLCHLVPYAQGLAVQVSTITLTVIALDRHRCIVYHLESKISKRISFLIIGLAWGISALLASPLAIFREYSLIEIIPDFEIVACTEKWPGEEKSIYGTVYSLSSLLILYVLPLGIISFSYTRIWSKLKNHVSPGAANDHYHQRRQKTTKMLVCVVVVFAVSWLPLHAFQLAVDIDSQVLDLKEYKLIFTVFHIIAMCSTFANPLLYGWMNSNYRKAFLSAFRCEQRLDAIHSEVSVTFKAKKNLEVRKNSGPNDSFTEATNV | failed
MELIFLGTSAGVPTRTRNVTAILLNLQHPTQSGLWLFDCGEGTQHQLLHTAFNPGKLDKIFISHLHGDHLFGLPGLLCSRSMSGIIQPLTIYGPQGIREFVETALRISGSWTDYPLEIVEIGAGEILDDGLRKVTAYPLEHPLECYGYRIEEHDKPGALNAQALKAAGVPPGPLFQELKAGKTITLEDGRQINGADYLAAPVPGKALAIFGDTGPCDAALDLAKGVDVMVHEATLDITMEAKANSRGHSSTRQAATLAREAGVGKLIITHVSSRYDDKGCQHLLRECRSIFPATELANDFTVFNV | failed
MTPSRDTKIILEGFCHPALNNPKPISVRFEKSILMVTGVNAGGKTMLLKSILSSAFLARYLIPMPILASKSSIGSFKGIAAVLDDPQSAKNDISTFAGRMLSFERFFKERGFLVGVDEIELGTDSDEAASLFKVILEQLIKRDFKIIITTHHKRLAALMAANEEVELMAALYDEKRQMPTFSFLQGTIGKSYAFETAERYGIPPFVIKEAKEVYGQDKEK | failed
MDVFSDRVLLTEESPIRKLVPFAEMAKKRGVRIHHLNIGQPDLKTPEVFFERIYENKPEVVYYSHSAGIWELREAFASYYKRRQRVDVKPENVLVTNGGSEAILFSFAVIANPGDEILVLEPFYANYNAFAKIAGVKLIPVTRRMEEGFAIPQNLESFINERTKGIVLSNPCNPTGVVYGKDEMRYLVEIAERHGLFLIVDEVYSEIVFRGEFASALSIESDKVVVIDSVSKKFSACGARVGCLITRNEELISHAMKLAQGRLAPPLLEQIGSVGLLNLDDSFFDFVRETYRERVETVLKKLEEHGLKRFTKPSGAFYITAELPVEDAEEFARWMLTDFNMDGETTMVAPLRGFYLTPGLGKKEIRIACVLEKDLLSRAIDVLMEGLKMFCSSRISC | not failed
METLSDVFATFSQRGDTTAFVHRTGVRRYVFTYLDLHALSLRMNRWLADQGVGEGDRVVLWGPNSPWWAVAFWGIVTRGAVAVPVDFMSGAERAEIIAGLTDAKLVIQSRDKLEHHHHHH | not failed
MTALFFENFAPGHFGRYGPRRVTREEIIAFASEYDPQPMHLDDHAANASMLKGMSGSGWHLSSLMMRMMYDGFIKDTASLGSPGVDEMRWMSPLRPGDDLLLDVEVIEARVSKSRPETGIVTFKCYVRNGHGQMLSEMVSPIIVKRRDAD | failed
MEYTTLAVLAGLPEDPHGAVGLPIYAVAAYGFKTLEEGQERFATGEGYVYARQKDPTAKALEERLKALEGALEAVVLASGQAATFAALLALLRPGDEVVAAKGLFGQTIGLFGQVLSLMGVTVRYVDPEPEAVREALSAKTRAVFVETVANPALLVPDLEALATLAEEAGVALVVDNTFGAAGALCRPLAWGAHVVVESLTKWASGHGSVLGGAVLSRETELWRNYPQFLQPDLKGQIPWEALRARCFPERVRTLGLSLCGMALSPFNAYLLFQGLETVALRVARMSETARFLAERLQGHPKVKALRYPGLPEDPAHRNARKYLASGGPILTLDLGDLERASRFLGAIRLLKAANLGDARTLLVHPWTTTHSRLKEEARLQAGVTPGLVRVSVGLEDPLDLLALFEEALEAV | not failed
MSGEGDTTLKAICYKPGSLQLLDQRKLPLETIYLEIRDASDGWSAIQEMVVRGAPAIAIAAALSLAVEVFNFHGFDGSASDAVAFLENKLDYLVSSRPTAVNLADAALKLKHVIAKALATATEAKSIFKAYIEASEDMLEDDVVSNKAIGNFGLSLLRQQAKNPDKLSVLTHCNTGSLATAGYGTALGVIRALHTQGILERAYCTETRPFNQGSRLTAFELVHEKIPATLIADSAAAALMKDGRVDGVIVGADRVASNGDTANKIGTYSLALCAKHHGIPFYVAAPLTSVDLSLSSGKEIVIEERSPKELMHTHGGLGERIAAPGISVWNPAFDMTPAELIAGIITEKGVITKNGNDTFDISSFAKKITGNSSR | failed
HMPSVIVVGGQWGDEGKGSIVAYLSLHDEPEIIARGGVGTNAGHSVVINGKKYAVRQIPTGFMQTKARLLIGAGVLVDPEVFFHELEQLKDFNVKDRVGIDYRCAIIEEKHKQLDRTNGYLHGKIGTTGSGCGPANADRVMRKAKQAKDVKELEPYLTDVAQEINDALDEGSLVLVEGTQGFGLSLYYGTYPYVTSKDVTASSVAADVGIGPTRVDEVIVVFKSFPTRVGAGPFPTEMPMEEADRLGLVEYGTVTGRRRRVGWFDFEMARYSARINGATMLAVTMLDKYDKEAFGVTDYDKLPRKAKEFIEEIEERVGVPVGLIKTGPELEHIIDRRDTI | not failed
MSPTLSILIPVYKRDCRRLLEELYKQAEELSVGYEIILGDDCSGEPYTSQYIAYEQEGLCRLVSAEENMGAGRLRNRLAEEAQGEQLLILDSDTLPASPDFIERYLRHASGTTVVCGGFVYPPKSTNPLRQRYGAEVESRSAEERARKPHSGFISMAFMIPRKQMLATGFPPNMGMGYEDILFGERLRQAGIPILHIDNPVEHYHCDTAEGFLATTRSYLDNLYCHREELAELVSLLRAYNLLKRLHLEHHHHHH | failed
MGSLMSGWDSRVRDPKSVRRCKSLTREEIDTFWKTKKKNEEEEHVQAFSKLVTQEGAQSQAKEKKSVDDLFENQSKSSGWWRKTYWAFLNEPREEEGRPNNYVSQFKVAHIAKIAGS | failed
MKFLTVSDDMNFLRQVNTLVAGKGDMDSVIIGEGDAKGLGSKVLYRAKKGTPFDAVSEGILKIAGNYDYIAIGSTEVGREIAGYLSFKTGFYTATEIFSLEFNGQKAHTKRFFYGGKTVIEEESDARILTVAPGVIEAKDLGTTPEIRDLEIGQSRIKITKFVSKAGGSVRLEDAKVIVSVGRGIGSKENIAKIEPLAKALNGEIAGSRPVCMDYGWLSEDRQVGLSGKKVSPKVYIALGISGQIQHIAGMRNSKTVIAINKDKNAPIFQECDYGIVGDLFTVVPKILEQLKQ | failed
ATLKQLDGIHVTILHKEEGAGLGFSLAGGADLENKVITVHRVFPNGLASQEGTIQKGNEVLSINGKSLKGTTHHDALAILRQAREPRQAVIVTRKLTPEAMPDLNS | not failed
MAMEKPVLWYIADPMCSWCWGFAPVIENIRQEYSAFLTVKIMPGGLRPGTNTPLLPEKRAQILHHWHSVHITTGQPFTFENALPEGFIYDTEPACRGVVSVSLIEPEKVFPFFAAIQRAFYVGQEDVAQLAILKKLAVDLGIPESRFTPVFQSDEAKQRTLAGFQRVAQWGISGFPALVVESGTDRYLITTGYRPIEALRQLLDTWLQQHGV | not failed
KRVFGFVSAKGGDGGSCIAANFAFALSQEPDIHVLAVDISLPFGDLDMYLSGNTHSQDLADISNASDRLDKSLLDTMVQHISPSLDLIPSPATFEKIVNIEPERVSDLIHIAASFYDYIIVDFGASIDHVGVWVLEHLDELCIVTTPSLQSLRRAGQLLKLCKEFEKPISRIEIILNRADTNSRITSDEIEKVIGRPISKRIPQDEDAMQESLLSGQSVLKVAPKSQLSKTIVDWALHLNGV | not failed
MKVTVVSRSGREVLKAPLDLPDSATVADLQEAFHKRAKKFYPSRQRLTLPVTPGSKDKPVVLNSKKSLKEYCDGNNNSLTVVFKDLGAQVSYRTLFFFEYLGPLLIYPVFYYFPVYKFLGYGEDCVIHPVQTYAMYYWCFHYFKRILETFFVHRFSHATSPIGNVFRNCAYYWSFGAYIAYYVNHPLYTPVSDLQMKIGFGFGLVCQVANFYCHILLKNLRDPSGAGGYQIPRGFLFNIVTCANYTTEIYQWLGFNIATQTIAGYVFLAVAALIMTNWALGKHSRLRKIFDGKDGKPKYPRRWVILPPFL | failed
PAKRAFSNADQFVETMLPLAKEAAARIGVDPVMLVAQAALETGWGKSIMRQQDGSSSHNLFGIKAAGSWKGAEARAITSEFRDGKMVKETADFRSYDSYADSFHDLVSLLQNNNRYKDVVNSADKPEQFVKELQKAGYATDPAYASKISQIAKQMKS | not failed
MIMVSGCQQQKEETPFYYGTWDEGRAPGPTDGVKSATVTFTEDEVVETEVMEGRGEVQLPFMAYKVISQSTDGSIEIQYLGPYYPLKSTLKRGENGTLIWEQNGQRKTMTRIESKTGREEKDEKSKSLEHHHHHH | not failed
MVRLFGPLVGLFFAVALLWSFGNGAYVAITEPAAPTAESVFHKHPKELDLASNGAFGRFDKQQLQRGFQVYKEVCATCHSLKQIAFRDLAALGYSEAEVKAIAKGWPTKAATFNPVTGDRGERDNIPSDRIPAVYYAGQGVPPDLSLMTKARHDGGAYVYSLLTGYAEQPAELLKQFPDAKTPDGLHYNPYFANLNLAMPAPLTTDGQVTYSDGTKASVDQMAKDVSAFLVWTAEPKLDKRKQTGWAVLGFLLVATVLAYLAKKNVWADKH | failed
MASKMDTETHYSDVWVVIPAFNEAAVIGKVVTDVRSVFDHVVCVDDGSTDGTGDIARRSGAHLVRHPINLGQGAAIQTGIEYARKQPGAQVFATFDGDGQHRVKDVAAMVDRLGAGDVDVVIGTRFGRPVGKASASRPPLMKRIVLQTGARLSRRGRRLGLTDTNNGLRVFNKTVADGLNITMSGMSHATEFIMLIAENHWRVAEEPVEVLYTEYSKSKGQPLLNGVNIIFDGFLRGRMPR | failed
MREDAARDRMRGFGFHEHVISESIKELLEVYEDQWFLIEDDSYGPLLAICLEKQEEKEKQLAEVQANQLPENHNEEMAEEEQPNQLAVEIHEEEKEQEQDMHIEYGRDQADELSINSEAVNDPSPAAIHLGEASSDYAQSSVRGVENLHCGWLIDEEETDPEEETDPEEKETEPEDPKEKETEPEEDSDGDDDEIIQLTPEPLCEELQELLREVRGQKRRKKEMRWDK | failed
